The data set deals with the molecule itself. Kind of data set: AUC; sedimentation equilibrium, 4 °C, Beckman Optima XL-A, absorption optics; samples at 60 μM and 160 μM in 25 mM Tris pH 7.5-8.5, 500 mM NaCl (other salts in some runs); 11,000-22,000 rpm; single-species fits and global fits of monomer-dimer and other models; monomer to dimer.

B1: NarL N-terminal domain plus linker region (NarL^N, residues 2-141), unphosphorylated (domain or fragment, Escherichia coli, UniProt P0AF28 2-141, looked up)
chain: SNQEPATILLIDDHPMLRTGVKQLISMAPDITVVGEASNGEQGIELAESLDPDLILLDLNMPGMNGLETLDKLREKSLSGRIVVFSVSNHEEDVVTALKRGADGYLLKDMEPEDLLKALHQAAAGEMVLSEALTPVLAAS
notes: NarL, nitrate response regulator of Escherichia coli; residues 2-141 (in-frame beginning at Ser2, stop codon introduced at Leu142); receiver domain and linker helix alpha6; The pQE9 construction puts a Gly in the place of Met1, before Ser2; also called NarL^(N (2–141)); NarL RD; source: E. coli JM109 (pQE9 derivative pMJ99), purified (Ni-NTA resin or HiTrap chelating column)
For B1, the stoichiometry N – broadly, a count of units in the complex or per binding partner – stood at 2.

B2: Phosphorylated NarL receiver domain with portion of the linker (NarL^N-P, residues 2-141) (domain or fragment, Escherichia coli, UniProt P0AF28 2-141, looked up)
chain: SNQEPATILLIDDHPMLRTGVKQLISMAPDITVVGEASNGEQGIELAESLDPDLILLDLNMPGMNGLETLDKLREKSLSGRIVVFSVSNHEEDVVTALKRGADGYLLKDMEPEDLLKALHQAAAGEMVLSEALTPVLAAS
modifications: phosphorylated with acetyl phosphate; the site of phosphorylation is Asp59
notes: NarL, nitrate response regulator of Escherichia coli; residues 2-141 (in-frame beginning at Ser2, stop codon introduced at Leu142); receiver domain and linker helix alpha6; The pQE9 construction puts a Gly in the place of Met1, before Ser2; also called phosphorylated NarL^N; phosphorylated RD
B2: the “stoichiometry N” value is 2.

For the origin of these results see PMC4549865, “The Escherichia coli NarL receiver domain regulates transcription through promoter specific functions” (BMC Microbiology, 2015).
